From article PMC12813973, “Consequences of Peptide Macrocyclization Revealed by Virus-Inspired β‑Hairpin Mimetics” (ACS Chemical Biology, 2025)
Where two headings read alike, the source gives them in different places.

Columns and labels:
[1] = target: T1, 018 minimal fragment (peptide 1) 11-30 (Vaccinia virus), P17356
[2] = target: T1, 018 minimal fragment (peptide 1) 11-30 …; experiment: ITC
[3] = target: T1, 018 minimal fragment (peptide 1) 11-30 …; experiment: competition

T1 sequence (P17356 11-30): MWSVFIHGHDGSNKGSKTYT

B1: STAT1, P42224 (protein)
chain: SQWYELQQLDSKFLEQVHQLYDDSFPMEIRQYLAQWLEKQDWEHAANDVSFATIRFHDLLSQLDDQYSRFSLENNFLLQHNIRKSKRNLQDNFQEDPIQMSMIIYSCLKEERKILENAQRFNQAQSGNIQSTVMLDKQKELDSKVRNVKDKVMCIEHEIKSLEDLQDEYDFKCKTLQNREHETNGVAKSDQKQEQLLLKKMYLMLDNKRKEVVHKIIELLNVTELTQNALINDELVEWKRRQQSACIGGPPNACLDQLQNWFTIVAESLQQVRQQLKKLEELEQKYTYEHDPITKNKQVLWDRTFSLFQQLIQSSFVVERQPCMPTHPQRPLVLKTGVQFTVKLRLLVKLQELNYNLKVKVLFDKDVNERNTVKGFRKFNILGTHTKVMNMEESTNGSLAAEFRHLQLKEQKNAGTRTNEGPLIVTEELHSLSFETQLCQPGLVIDLETTSLPVVVISNVSQLPSGWASILWYNMLVAEPRNLSFFLTPPCARWAQLSEVLSWQFSSVTKRGLNVDQLNMLGEKLLGPNASPDGLIPWTRFCKENINDKNFPFWLWIESILELIKKHLLPLWNDGCIMGFISKERERALLKDQQPGTFLLRFSESSREGAITFTWVERSQNGGEPDFHAVEPYTKKELSAVTFPDIIRNYKVMAAENIPENPLKYLYPNIDKDHAFGKYYSRPKEAPEPMELDGPKGTGYIKTELISVSEVHPSRLQTTDNLLPMSPEEFDEVSRIVGSVEFDSMMNTV
- Kd [1]: 73 nM
- Kd [2]: 533 nM
- IC50 [3]: 4300 nM
